Reference: paper PMC5551578 (The Journal of Experimental Medicine, 2017)
Residue numbers refer to the chain shown, from its start.

Tests used:
[1] = target: H7N9 HA (A/Shanghai/1/2013) (Influenza A virus A/Shanghai/1/2013 …, strain)
[2] = target: T1, H1N1 HA (A/California/04/2009) (Influenza A virus A/California/04/2009 …, UniProt C3W5S1, strain); assay: SPR; conditions: both partners purified
T1 construct: source: bought: Sino Biological

B1: H7-Ab6 (antibody, V domains shown)
VH: EVQLVESGGGLVKPGGSLRLSCTASGFTFSDYPMSWVRQAPGKGLEWLSSISTGSTYIYYADSVKGRFTISRDNAQNSMYLQMNSLRAEDTAIYYCARGAKVELALGWYFDLWGRGTLVTVSS
VL: QSVLTQPPSVSAAPGQKVTISCSGSNSNIGNNFVSWYQQLPGTAPKLLIYDNNKRPSGIPDRVSGSKSGTSATLGITGLQTGDEADYYCGTWDNRLSAAVFGGGTKLTVL
binding result [1]: binds

B2: H7-Ab7 (antibody, V domains shown)
VH: QVQLQESGGGLVQPGGSLRLSCAASGFTFSAYAMNWVRQAPGKGLDWVSGIGGNGGITKYADSVKGRFTISRDNSKKTLYLQMNSLTAEDTAVYYCAKDASWDVRGWFDPWGQGTLVTVSS
VL: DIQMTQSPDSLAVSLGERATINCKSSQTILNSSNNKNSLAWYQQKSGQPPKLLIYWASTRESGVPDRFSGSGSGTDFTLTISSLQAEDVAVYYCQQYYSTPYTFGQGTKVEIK
binding result [1]: binds

B3: H7-Ab8 (antibody, V domains shown)
VH: EVQLVQSGGGVVLPGRSLRLSCAASGFTFSNHGMHWVRQAPGKGLEWMAVIWSDGTTKYYADSVKGRFTISRDNSKNTVYLQMNSLRAEDTAVYYCAREVIYSGYFFDHWGQGTTVTVSS
VL: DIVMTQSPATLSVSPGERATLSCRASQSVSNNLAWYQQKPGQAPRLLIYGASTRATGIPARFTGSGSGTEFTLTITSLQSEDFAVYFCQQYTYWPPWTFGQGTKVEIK
binding result [1]: binds

B4: H7-Ab10 (antibody, V domains shown)
VH: WVQLVESGGGLVQPGGSLRLSCVDSGSTFSKYWMTWVRQAPGKGLEWVANIKEDGSKEYYMESLKGRFTISRDNAKNSLYLQISTLRAEDTAVYYCATSSGWRFEVWGRGTTVTVSS
VL: QSALTQPPSASGSPGQSVTISCTGTSSDVGTYNYVSWYQQQADKAPKLIIFDVDKRPSGVPDRFSGSKSGNTASLTVSGLQADDEADYYCSSYAGTKHWIFGGGTKLTVL
binding result [1]: binds

B5: H7-Ab11 (antibody, V domains shown)
VH: QVQLQESGPRLVKPSQTLSLTCAVSGGSITSNDYNWSWIRQHPGKGLEWIGYIYHSGNTFYNPALESRVSMSVDTSKNQFSLRLTSVTAADTAVYFCARTQRSTVAHIVGPVQGRFHFDYWSQGTLVTVSS
VL: DIQMTQSPGTLSLSPGERVTLSCRASRSVSPYYLAWYQQKPGQAPRLLIYGSSTRATGIPDRFSGSGSGTDFTLTINKLEPEDFAIYYCQQYGRSSGFVFGPGTKVDIK
binding result [1]: binds

B6: H7-Ab12 (antibody, V domains shown)
VH: EVQLVESGPGLVKPAQTLSLTCTVSGGSISSGGDYWSWIRQHPGKGLEWIGYIYYSGNAFYNPSLKSRVSMSVDTSKNQFSLKLSSVSAADTAVYYCARVRGVYFWGQGTLATVSS
VL: EIVMTQSPGTLSLSPGERATLSCRASQSVSSSHLAWYQQKPGQAPRLLIYGASSRATGIPDRFSGSGSGTDFTLTISRLEPEDFAVYYCQQYGSSLPPWTFGQGTKVEIK
binding result [1]: binds

B7: H7-Ab13 (antibody, V domains shown)
VH: EVQLVESGPGLVKPSQTLSLTCTVSDGTIGSDAYHWSWIRQYPGRGLEWIGSFYYSGNTYYNPSLKSRLTISVDTSKNQFSLKLNSVTAADTAVYYCARNSAYCTDTRCYNGGGWFHPWGQGTTVTVSS
VL: DIVMTQSPGTLSLSPGERATLSCRASQSVSSTYLAWYQQKPGQAPRFLIYGASRRATGIPDRFSGSGSGTDFTLTISRVEPEDFTVYYCQQYGSSPITFGQGTRLEIK
binding result [1]: binds

B8: H7-Ab14 (antibody, V domains shown)
VH: EVQLVESGPRLVKPSGTLSLTCAVSDDSISSAGYYWGWIRQSPGKGLEWIAAFFFGGSAYYNPSLKSRLTISTDTSENQFSLSLASVTAADTAVYYCAVIQLSTPPVPFEIWGQGTLVTVSS
VL: EIVMTQSPGTLSLSPGERATLSCRASQIISSNYLAWYQQKPGQAPRLLIFGASSRATGTPDRFSGSGSGTDFTLTISRLEPEDFVVYYCHQYDSSWYTFGQGTKVEIK
binding result [1]: binds

B9: H1-Ab19 (antibody, V domains shown)
VH: EVQLVESGGGLVKPGGSLRLSCAASGFTFSSYSMHWVRQAPGKGLEWVSSISSIGTYIYYADSVKGRFTISRDNAKNSLYLQLNSLRVEDTAVFYCATGVTSSYGGYSGYFDSWGQGTLVTVSS
VL: DIVMTQSPSSLSASVGDRVTITCQASQDISKHLNWYQQKPGKAPKLLIYDASNLETGVPSRFSGSGSGTDFSFTISSLQPEDIATYYCQQYDNPFLTFGGGTKVEIK
notes: IgG1; source: HEK293T, transfected with heavy and light chain plasmids; purified mAbs
Kd [2]: 0.001 nM

B10: H1-Ab30 (antibody, V domains shown)
VH: EVQLVQSGGGLVQPGGSLRLSCAASGFTFSSYAMSWVRQAPGKGLEWVSTISGSGISTYYADSVKGRFTISRDNSKNTLYLQMNSLRADDTAVYYCAKALATHIVMAGTLDFWGQGTLVTVSS
VL: EIVMTQSPATLSVSPEERATLSCRASQSVTNSLAWYQQKPGQAPRLLIYGASTRATGIPARFSGSGSGTEFTLTISSLQSEDFAVYYCQQYNNWPPLTFGGGTKVEIK
notes: as for B9
Kd [2]: 0.066 nM

B11: H1-Ab32 (antibody, V domains shown)
VH: EVQLVESGGGLVQPGGSLRLSCAASSFTFSNYAMSWVRQAPGKGLEWVSLINSGGGDKYYADSVKGRFIVSRDNSKNALYLQMNSLRAEDTAVYFCARVVGRETFGLVIPIYYFDYWGQGDLVTVSS
VL: EIVLTQSPATLSLSPGERATLSCRASQSVSSFLAWYQQKPGQAPRLLIYDASNRATGVPARFSGSGSGTDFTLTISSLEPEDFAVYYCQQCSNWPPLTFGGGTKVEIK
notes: as for B9
Kd [2]: 0.56 nM

B12: H1-Ab41 (antibody, V domains shown)
VH: QVQLQESGGGVVQPERSLRLSCAASGFKFSSYAMHWVRQAPGKGLEWVAVFWSDGTTKYYANSVRGRFTVSRDNSKNMLYLQINSLRAEDTAVYYCARGFLLPYYGSSGYEYFFDFWGQGTTVTVSS
VL: AIGMTQSPESLAVSLGERATINCKSGQSILHSSNNKNYLAWYQQKPGQPPKLVIYWASTRESGVPDRFSGSGSETDFTLTISSLQAEDVAVYYCQQYYSTPSFGGGTKVEIK
notes: as for B9
Kd [2]: 0.0819 nM

B13: H1-Ab43 (antibody, V domains shown)
VH: EVQLVESGGNLVQPGGSLTLSCAVSGFAFSNFEANWVRQAPGKGLEWVSYISKSGLTKYYSDSVKGRFTISRDNAKSSLYLQMNSLRAEDTAVYYCVSPIPVAGTMEIYWGQGTLVTVSS
VL: B10 VL with E1D, V3Q, S14F, E16G, V29I, T30R, N31S, S32D, A43P, G68E
notes: as for B9
Kd [2]: 0.155 nM

B14: H1-Ab55 (antibody, V domains shown)
VH: EVQLVESGPGLVKPSETLSLTCTVSGGSISSDYWSWIRQAPGKGLEWLAYIHHNGRTNYNPSLGSRVAISIDTSRSQFSLKLGSVTAADTAVYYCARDQTGIRKSNAFDLWGQGTLVTVSS
VL: DIQLTQSPSSLSASVGDRVTITCRASQNIRSYLNWYQQKPGKAPKLLIYGVSTLQNGVPSRFSGSASGSDFTLTISSLQPEDFATYHCQQSYDTPQTFGPGTKVEIK
notes: as for B9
Kd [2]: 0.467 nM

B15: H1-Ab56 (antibody, V domains shown)
VH: EVQLVQSGPGLVKPSETLSLTCTVSGGSISSDYWSWIRQPPGKGLEWIGYIHQNGRTNSNPSLRGRVSMLVDTSESQFSLKLGSVTAADTAVYYCARDQAGIRRSNAFDIWGQGTLVTVSS
VL: DIVMTQSPSSLSASVGDRVTITCRASQSISTYLNWYQQKPGKAPKLLIYAASTLQSGVPSRFSGSASGSEFTLTISSLQPEDFASYYCQQSYDIPQTFGPGTKVEIK
notes: as for B9
Kd [2]: 0.372 nM

B16: H1-Ab59 (antibody, V domains shown)
VH: EVQLVESGPGLVKPSQTLSLTCTVSGGSVSSGGYSWTWIRQPAGKGLEWIGRIYFTGSTNYNPSLKSRITISVDTSKNQFSLRLSSVTAADTAVYYCAREDDFVWGSYRRFAYFDYWGQGTLVTVSS
VL: EIVMTQSPSSLSASVGDRVNITCQASQDISNYLNWYQQKPGEAPKLLIYGASSLQTGVPSRFSGSGSGTNFIFTISSLQPEDLATYYCQQYDNLPMYTFGQGTKVEIK
notes: as for B9
Kd [2]: 14 nM
